Paper PMC12319226 (Frontiers in Bioinformatics, 2025)
Residue numbers refer to the chain shown, from its start.

What was measured:
Assay in all cases: BLI
[1] = biological target: chimeric antibody hJAR5 (mouse variable, human constant)
mAb JAR5 (mouse) (mouse) = biological target: mAb JAR5 (mouse) (mouse)
[2] = biological target: T1, Neisseria meningitidis factor H binding protein variant 3.28 (Neisseria meningitidis, fHbp variant …, strain); settings: both partners purified
T1 construct: also called fHbp v3.28; fHbp variant 3.28
T1 chain: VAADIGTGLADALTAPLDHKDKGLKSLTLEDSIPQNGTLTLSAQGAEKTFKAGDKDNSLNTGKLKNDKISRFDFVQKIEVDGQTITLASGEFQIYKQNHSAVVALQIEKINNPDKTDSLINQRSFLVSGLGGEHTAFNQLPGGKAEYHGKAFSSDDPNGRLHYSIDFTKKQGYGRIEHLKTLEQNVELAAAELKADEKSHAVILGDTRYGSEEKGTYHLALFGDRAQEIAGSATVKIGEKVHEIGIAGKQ

[3] = biological target: T2, factor H binding protein variant 1.1 (Neisseria meningitidis serogroup B …, UniProt Q9JXV4); settings: both partners purified
T2 construct: also called fHbp v1.1; v1.1 Control (0001)

[4] = biological target: T3, factor H binding protein variant 3.28 (Neisseria meningitidis, fHbp variant …); settings: both partners purified
T3 construct: also called fHbp v3.28; v3.28 Control (0002)
T3 chain: T1 chain

[5] = biological target: T3, factor H binding protein variant 3.28; settings: both partners purified
fHbp m000019 [6] = biological target: T4, fHbp m000019 (Neisseria meningitidis, fHbp v1.1 …, point mutant); settings: both partners purified
T4 construct: also called Round 1 best mutant
T4 chain: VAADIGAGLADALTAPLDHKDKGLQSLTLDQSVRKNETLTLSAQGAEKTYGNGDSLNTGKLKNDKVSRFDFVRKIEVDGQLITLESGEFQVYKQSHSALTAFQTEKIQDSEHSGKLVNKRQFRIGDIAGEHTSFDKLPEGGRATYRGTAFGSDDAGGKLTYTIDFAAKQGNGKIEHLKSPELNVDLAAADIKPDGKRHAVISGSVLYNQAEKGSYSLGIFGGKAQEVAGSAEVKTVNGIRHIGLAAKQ

fHbp mutant 0014 = biological target: T5, fHbp mutant 0014 (Neisseria meningitidis, fHbp v1.1 mutant, point mutant); settings: both partners purified
T5 chain: T4 chain with T38K, T40K, S42A, V72I, K74Q, K106Q, L116M, N118A, A155P, G156N

fHbp mutant 0012 = biological target: T6, fHbp mutant 0012 (Neisseria meningitidis, fHbp v1.1 mutant, point mutant); settings: both partners purified
T6 chain: T4 chain with T38K, T40K, S42A, K106Q, L116M, N118A

fHbp mutant 0017 = biological target: T7, fHbp mutant 0017 (Neisseria meningitidis, fHbp v1.1 mutant, point mutant); settings: both partners purified
T7 chain: T4 chain with K106Q, A155P, G156N

fHbp mutant 0018 = biological target: T8, fHbp mutant 0018 (Neisseria meningitidis, fHbp v1.1 mutant, point mutant); settings: both partners purified
T8 chain: T4 chain with L116M, N118A, A155P, G156N

fHbp m000019 [7] = biological target: T9, fHbp m000019 (Neisseria meningitidis, fHbp v1.1 …, point mutant); settings: both partners purified
T9 chain: T4 chain

fHbp mutant 0015 = biological target: T10, fHbp mutant 0015 (Neisseria meningitidis, fHbp v1.1 mutant, point mutant); settings: both partners purified
T10 chain: T4 chain with T38K, T40K, S42A, A155P, G156N

fHbp mutant 0016 = biological target: T11, fHbp mutant 0016 (Neisseria meningitidis, fHbp v1.1 mutant, point mutant); settings: both partners purified
T11 chain: T4 chain with V72I, K74Q, E76R, V77S, A155P, G156N

[8] = biological target: T12, Neisseria meningitidis factor H binding protein variant 1.1 (Neisseria meningitidis, UniProt Q9JXV4); settings: both partners purified
T12 construct: also called fHbp v1.1; fHbp variant 1.1

fHbp m002416 = biological target: T13, fHbp m002416 (Neisseria meningitidis, fHbp v3.28/v1.1 …, point mutant); settings: both partners purified
T13 construct: also called fHbp 2,416; Round 2 best mutant
T13 chain: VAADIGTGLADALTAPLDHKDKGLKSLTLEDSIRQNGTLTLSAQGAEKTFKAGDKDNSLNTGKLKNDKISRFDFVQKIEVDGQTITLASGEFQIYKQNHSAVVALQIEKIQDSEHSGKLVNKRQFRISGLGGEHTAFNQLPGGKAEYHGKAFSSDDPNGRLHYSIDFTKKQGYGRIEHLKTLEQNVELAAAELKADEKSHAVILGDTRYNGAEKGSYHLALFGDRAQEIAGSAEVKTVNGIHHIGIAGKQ

For “fHbp m000006 (from UniProt E6MV22 20-274) (natural protein)”, the Kd [1] was 0.922 nM, the koff [1] was 0.000499 s⁻¹ and the kon [1] was 541000 M⁻¹ s⁻¹. It also gave a Kd (mAb JAR5 (mouse) (mouse)) of under 0.001 nM, a koff (mAb JAR5 (mouse) (mouse)) of under 1e-07 s⁻¹ and a kon (mAb JAR5 (mouse) (mouse)) of 642000 M⁻¹ s⁻¹.

fHbp CC4 (natural protein) showed a Kd [1] of 6.92 nM, a koff [1] of 0.00561 s⁻¹ and a kon [1] of 811000 M⁻¹ s⁻¹.

fHbp CC1 (natural protein) gave a Kd [1] of 3.86 nM, a koff [1] of 0.00268 s⁻¹ and a kon [1] of 693000 M⁻¹ s⁻¹.

Work on fHbp CC5 (natural protein) yielded a Kd [1] of 6.49 nM, a koff [1] of 0.00446 s⁻¹ and a kon [1] of 687000 M⁻¹ s⁻¹.

Molecule fHbp CC2 (natural protein) has a Kd [1] of 0.425 nM, a koff [1] of 0.000266 s⁻¹ and a kon [1] of 625000 M⁻¹ s⁻¹.

fHbp CC8 (natural protein) gave a Kd [1] of 3.58 nM, a koff [1] of 0.002 s⁻¹ and a kon [1] of 558000 M⁻¹ s⁻¹.

fHbp CC9 (natural protein) gave a Kd [1] of 7.66 nM, a koff [1] of 0.00118 s⁻¹ and a kon [1] of 154000 M⁻¹ s⁻¹.

In the case of fHbp CC3 (natural protein), the Kd [1] is reported as 1.2 nM, the koff [1] is reported as 0.00241 s⁻¹ and the kon [1] is reported as 2.01e+06 M⁻¹ s⁻¹.

B1: human mAb 1A12 (antibody, V domains shown)
VH: EVQLVQSGAELKKPGESLKISCKASGYTFTNYWVVWVRQMPGEGLEWMGSIHPRDSDARYSLSFEGRVTFSVDKSTTTAYLQWSSLKVSDSAIYYCARLSQVSGWSPWVGPWGQGTLVTVSS
VL: DIVMTQSPSSLSASVGDRVTITCRASQSISVSLNWYQQKPGKAPKVLIYAASRLQSGIPSRFSGSGSGSHFTLTISSLQPEDFATYYCQETYSDLMYTFGQGTKVEIK
notes: source: Expi293, transient transfection, purified (MabSelect SuRe, SEC)
With B1 the Kd [2] was 7 to 20 nM.

B2: mAb 1A12 (human) (antibody, V domains shown)
VH: B1 VH
VL: B1 VL
notes: source: Expi293, purified (MabSelect SuRe, SEC); copies: 2 + 2
B2 showed a Kd [3] of under 0.001 nM, a Kd [4] of 65.9 nM and a Kd [5] of 20.4 nM.

B3: mouse mAb 12C1 (antibody, V domains shown)
VH: QVQLQESGPELVKPGASVKISCKASGYSFSDYNMSWVKQSNGKSLEWIGIIDPKYGTINYNQKFKGKATLTVDQASSTAYMQLNSLTSEDSAVYYCVRDYYGSSYFDYWGQGTTLTVSS
VL: DIVLTQSPSSIYASLGERVTLTCKASQDIHNYLNWFQQKPGKSPKTLIYRANRLVDGVPSRFSGGGSGQDYSLTISSLEFEDIGIYYCLQYDEFPPTFGGGTRLEIK
notes: also called mouse 12C1 mAb; source: Expi293, transient transfection, purified (MabSelect SuRe, SEC)
B3 was tested, and the Kd (fHbp m000019 [6]) was 0.037 nM.

B4: mAb 12C1 (mouse) (antibody, V domains shown)
VH: B3 VH
VL: B3 VL
notes: as for B2
B4 gave a Kd (fHbp mutant 0014) of under 0.001 nM, a koff (fHbp mutant 0014) of under 1e-07 s⁻¹ and a kon (fHbp mutant 0014) of 809000 ± 12500 M⁻¹ s⁻¹. For the same molecule, the Kd (fHbp mutant 0012) was under 0.001 nM, the koff (fHbp mutant 0012) was under 1e-07 s⁻¹ and the kon (fHbp mutant 0012) was 599000 ± 21400 M⁻¹ s⁻¹. It also gave a Kd (fHbp mutant 0017) of under 0.001 nM, a koff (fHbp mutant 0017) of under 1e-07 s⁻¹ and a kon (fHbp mutant 0017) of 359000 ± 10900 M⁻¹ s⁻¹. For the same molecule, the Kd (fHbp mutant 0018) was under 0.001 nM, the koff (fHbp mutant 0018) was under 1e-07 s⁻¹ and the kon (fHbp mutant 0018) was 397000 ± 13200 M⁻¹ s⁻¹. It also gave a koff (fHbp m000019 [7]) of 2.2e-05 s⁻¹, a kon (fHbp m000019 [7]) of 585000 ± 6100 M⁻¹ s⁻¹ and a Kd (fHbp mutant 0015) of under 0.001 nM. It also gave a koff (fHbp mutant 0015) of under 1e-07 s⁻¹, a kon (fHbp mutant 0015) of 386000 ± 44100 M⁻¹ s⁻¹ and a Kd (fHbp mutant 0016) of under 0.001 nM. For the same molecule, the koff (fHbp mutant 0016) was under 1e-07 s⁻¹, the kon (fHbp mutant 0016) was 101000 ± 20700 M⁻¹ s⁻¹ and the Kd [3] was under 0.001 nM. The koff [3] was under 1e-07 s⁻¹ and the kon [3] was 796000 ± 15600 M⁻¹ s⁻¹.

B5: chimeric antibody h12C1 (antibody, V domains shown)
VH: B3 VH
VL: B3 VL
notes: also called humanized 12C1 mAb; source: Expi293, transient transfection, purified (MabSelect SuRe, SEC)
Work on B5 yielded a Kd [8] of 0.1 to 0.8 nM and a Kd (fHbp m002416) of 0.293 nM.

B6: mouse mAb JAR5 (antibody, V domains shown)
VH: QVQMQQPGAELVKPGASVKLSCKASGYTFISYWMHWVKQRPGRGLEWIGRIAPDTGIIYYNEKFKNKATLTVDTPSSTAYMQLNSLTSEDSAVYYCARYLKYDGSTYRFDYWGQGTTLTVSS
VL: DIVMTQAAPSVPVTPGESVSISCRSSKSLLHSNGNTYLFWFLQRPGQSPQLLIYRMSNLASGVPDRFSGSGSGTSFTLRISRVEAEDVGVYYCMQHLEYPYTFGGGTKLEIK
notes: also called mouse JAR5 mAb; source: Expi293, transient transfection, purified (MabSelect SuRe, SEC)
Work on B6 yielded a Kd (fHbp m000019 [6]) of 0.254 nM.

B7: mAb JAR5 (mouse) (antibody, V domains shown)
VH: B6 VH
VL: B6 VL
notes: as for B2
In the case of B7, the Kd (fHbp mutant 0014) is reported as 0.211 nM, the Kd (fHbp mutant 0012) is reported as 0.418 nM and the Kd (fHbp mutant 0017) is reported as 0.0297 nM. The Kd (fHbp mutant 0018) was 0.404 nM and the Kd (fHbp mutant 0015) was 0.209 nM.

B8: chimeric antibody hJAR5 (antibody, V domains shown)
VH: B6 VH
VL: B6 VL
B8 showed a Kd (fHbp m002416) of 0.631 nM.
